Publication PMC11974786 (bioRxiv, 2025)

How the values were obtained:
[1] = target: OptS from Klebsiella pneumoniae strain KP67 (Klebsiella pneumoniae strain KP67); experiment: SEC
[2] = target: OptS from Klebsiella pneumoniae strain KP67 (Klebsiella pneumoniae strain KP67); experiment: SEC; remark: listed apart in the source
[3] = target: OptS from Klebsiella pneumoniae strain KP67 (Klebsiella pneumoniae strain KP67); experiment: crystal structure
KpOptS = target: T1, KpOptS (Klebsiella pneumoniae, UniProt A0A2G9LI54); experiment: HPLC and LC-MS product analysis; type: biochemical; conditions: 100 μM OptS, 1 mM MnCl2, 10 mM MgSO4, pH 7.4, 100 mM NaCl
T1 sequence (A0A2G9LI54 1-119): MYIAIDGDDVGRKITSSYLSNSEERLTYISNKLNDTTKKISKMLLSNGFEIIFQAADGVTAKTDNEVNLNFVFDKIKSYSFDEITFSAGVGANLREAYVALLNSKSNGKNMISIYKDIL

| Compound | stoichiometry N [1] | stoichiometry N [2] | stoichiometry N [3] | HPLC and LC-MS product analysis (KpOptS) |
| --- | --- | --- | --- | --- |
| OptS from Klebsiella pneumoniae strain KP67 (enzyme) | 4 | > 3 | 4 | – |
| Nc1ncnc2c1ncn2[C@@H]1O[C@H](COP(=O)(O)OP(=O)(O)OP(=O)(O)O)[C@@H](O)[C@H]1O [ATP] | – | – | – | The largest abundance product observed was derived from ATP |
